From article PMC6294518, “Structural insights into the duplex DNA processing of TREX2” (Nucleic Acids Research, 2018) come the findings set out here.

Data set [1] deals with T1, mTREX2 (Mus musculus, UniProt Q9R1A9 1-236).
T1 sequence: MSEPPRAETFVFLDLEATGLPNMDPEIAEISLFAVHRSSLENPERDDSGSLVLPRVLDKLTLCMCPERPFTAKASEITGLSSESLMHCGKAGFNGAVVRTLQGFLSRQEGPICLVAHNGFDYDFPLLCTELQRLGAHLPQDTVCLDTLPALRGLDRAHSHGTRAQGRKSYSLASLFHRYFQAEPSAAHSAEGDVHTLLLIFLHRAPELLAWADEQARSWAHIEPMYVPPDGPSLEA
The experiment in a line: X-ray crystallography (1.9 A); 2 Mg2+ per active site; Co-crystallization: mTREX2 5-8 mg/ml (stock 50 mM Tris-HCl, 400 mM NaCl, pH 7.0) with DNA at molar ratio 1:1.2; crystallization conditions in Table S2 not in the material. To be noted: protein: recombinant; tags: pET28a vector, TALON-purified (His tag implied); chain copies: 2; hairpin; 1-nt unpaired 3' overhang, 4-nt unpaired 5' overhang; 2 DNAs per protein dimer.

The target in data set [2] is T1, mTREX2. The experiment in a line: X-ray crystallography (2.7 A); 2 Mg2+ per active site; Co-crystallization: mTREX2 5-8 mg/ml (stock 50 mM Tris-HCl, 400 mM NaCl, pH 7.0) with DNA at molar ratio 1:1.2; crystallization conditions in Table S2 not in the material. The conditions noted are these: protein: recombinant; tags: pET28a vector, TALON-purified (His tag implied); chain copies: 2; hairpin; 3' overhang 2 nt.

Data set [3] deals with the molecule itself. The experiment in a line: crystal structure; apo-mTREX2 at 1.9 Å, one dimer in the asymmetric unit; a dimer is also seen in the Y-shaped DNA complex and the product (dCMP) complex.

For TGCCAGGCCCTCTTTAGGGCCTT (structured_DNA) [Y-shaped DNA (23-nt stem loop)], in the data set with mTREX2 [1], the binding result is reported as “binds”.

GGCCCTCTTTAGGGCCTT (structured_DNA) [duplex DNA with 2-nt 3'-overhang (stem loop)]: in the data set with mTREX2 [2], the binding result is recorded as “binds”.

B1: mouse TREX2 (three prime repair exonuclease 2) (enzyme)
chain: MSEPPRAETFVFLDLEATGLPNMDPEIAEISLFAVHRSSLENPERDDSGSLVLPRVLDKLTLCMCPERPFTAKASEITGLSSESLMHCGKAGFNGAVVRTLQGFLSRQEGPICLVAHNGFDYDFPLLCTELQRLGAHLPQDTVCLDTLPALRGLDRAHSHGTRAQGRKSYSLASLFHRYFQAEPSAAHSAEGDVHTLLLIFLHRAPELLAWADEQARSWAHIEPMYVPPDGPSLEA
notes: TREX2, three prime repair exonuclease 2, mouse; NCBI Gene ID 24102; Cloned into pET28a and purified on a TALON column; Homodimer in the crystal and by gel filtration; also called mTREX2; apo-mTREX2; source: E. coli BL21-CodonPlus (DE3)-Rosetta, purified (HiTrap TALON, HiTrap Q, Superdex 75)
For B1, the “stoichiometry N” value in data set [3] stood at 2.
